Measurements: patent US20180346889, “DNA POLYMERASE VARIANT” (KYUSHU UNIVERSITY, NATIONAL UNIVERSITY CORPORATION, published 2018)
Changes are numbered by the printed parent chain.

Experiments:
[1] = target: T1, Taq58 (TaqLF P685S Y686R E687K) (Thermus aquaticus, UniProt P19821 SEQ:1-544); test: EMSA; apparent; shifted band from 25 nM; 20 mM Tris-HCl pH 8.8, 10 mM NaCl, 5 mM MgCl2, 40 C; conditions: label: 5'-32P on d27; primer-template, 27 bp duplex with 22 nt 5' overhang on 49N
T1 chain: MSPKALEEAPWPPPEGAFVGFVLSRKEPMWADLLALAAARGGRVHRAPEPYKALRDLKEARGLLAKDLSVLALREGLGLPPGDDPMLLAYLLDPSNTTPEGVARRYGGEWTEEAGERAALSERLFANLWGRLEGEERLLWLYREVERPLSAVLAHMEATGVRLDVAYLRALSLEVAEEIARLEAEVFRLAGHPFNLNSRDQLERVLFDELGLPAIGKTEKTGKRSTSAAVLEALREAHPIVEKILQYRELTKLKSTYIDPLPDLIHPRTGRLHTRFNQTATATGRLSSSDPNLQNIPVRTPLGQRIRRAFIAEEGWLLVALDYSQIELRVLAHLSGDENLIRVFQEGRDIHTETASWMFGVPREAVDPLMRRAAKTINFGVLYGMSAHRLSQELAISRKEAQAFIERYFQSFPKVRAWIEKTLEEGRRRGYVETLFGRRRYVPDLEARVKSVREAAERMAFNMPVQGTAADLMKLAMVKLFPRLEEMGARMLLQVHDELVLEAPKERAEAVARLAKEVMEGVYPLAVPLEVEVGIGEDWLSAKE
Method: (§1) The affinity of variant Taq polymerases and primed DNAs was examined using a gel shift assay. The measurement was carried out in the following manner.
(§2) First, DNA in which a 27 nt of a single-stranded DNA (d27, SEQ ID NO: 50) radioactive-labeled with ³²P at 5′-terminal was annealed to a non-labeled 49 nt of a single-stranded DNA (49N, SEQ ID NO: 51) was used as a substrate DNA for the measurement of DNA binding ability. DNA polymerase proteins were added to 10 μl of Solution E [20 mM Tris-HCl, pH 8.8, 10 mM NaCl, 5 mM MgCl₂, 14 mM 2-mercaptoethanol, 0.1 mg/ml BSA and 5% (v/v) glycerol] containing 2 nM substrate DNA so as to have concentration of from 0.6 to 400 nM, and the mixture was held at 40° C. for 5 minutes. A liquid DNA-enzyme mixture was subjected to 1% agarose gel and electrophoresed in a 0.1×TAE solution [4 mM Tris base, 2 mM acetic acid and 0.1 mM EDTA]. After the termination of electrophoresis, the gel was dried, and the dried gel was exposed to an imaging plate. Typhoon TRIO+ was used to detect a labeled DNA.

[2] = target: T2, Taq59 (TaqLF P685R Y686R E687R) (Thermus aquaticus, UniProt P19821 SEQ:1-544); test: EMSA; apparent; clear shift at 25 nM, two-step shift at 400 nM; 20 mM Tris-HCl pH 8.8, 10 mM NaCl, 5 mM MgCl2, 40 C; conditions: label: 5'-32P on d27; primer-template, 27 bp duplex with 22 nt 5' overhang on 49N
T2 chain: T1 chain with S397R, K399R
Method: as §1, §2

B1: primed DNA d27/49N (dsDNA)
DNA 1: AGCTATGACCATGATTACGAATTGCTT
DNA 2: AGCTACCATGCCTGCACGAATTAAGCAATTCGTAATCATGGTCATAGCT
Kd [1]: 100 nM | Kd [2]: 40 nM
